Assay results as given in US20190241662A1 (ADAGENE, published 2019).
Residue numbers refer to the chain shown, from its start.

T1: full-length human CTLA4 expressed on cells (human, UniProt P16410 36-223)
T1 construct: whole, on cells; also called HEK293F/hCTLA-4 cells; HEK293F/hCTLA4 cells
T1 sequence (looked up): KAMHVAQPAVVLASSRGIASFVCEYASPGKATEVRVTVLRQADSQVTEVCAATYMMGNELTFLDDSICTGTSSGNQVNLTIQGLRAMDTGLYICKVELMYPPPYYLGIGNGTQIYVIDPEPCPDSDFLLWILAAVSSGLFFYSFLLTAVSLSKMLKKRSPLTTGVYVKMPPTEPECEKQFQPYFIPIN

T2: human LAG3 on HEK293F cells (human, UniProt P18627 23-525)
T2 construct: whole, on cells
T2 sequence (looked up): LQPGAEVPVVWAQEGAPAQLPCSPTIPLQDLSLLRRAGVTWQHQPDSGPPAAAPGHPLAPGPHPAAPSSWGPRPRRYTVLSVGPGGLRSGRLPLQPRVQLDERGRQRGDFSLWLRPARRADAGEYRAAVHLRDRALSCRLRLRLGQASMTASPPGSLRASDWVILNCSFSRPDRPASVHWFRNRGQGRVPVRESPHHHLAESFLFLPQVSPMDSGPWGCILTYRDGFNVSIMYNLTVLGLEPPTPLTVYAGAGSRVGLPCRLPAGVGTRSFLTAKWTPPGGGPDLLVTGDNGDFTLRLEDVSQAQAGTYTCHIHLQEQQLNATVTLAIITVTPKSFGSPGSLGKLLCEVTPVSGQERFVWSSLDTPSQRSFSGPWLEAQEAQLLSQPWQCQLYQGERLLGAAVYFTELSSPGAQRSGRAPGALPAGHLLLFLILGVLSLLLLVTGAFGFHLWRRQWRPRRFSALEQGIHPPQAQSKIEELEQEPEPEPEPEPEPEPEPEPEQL

T3: biotinylated rat CTLA4 protein fused with human FC (rat, UniProt Q62859 36-161, Biotinylated; sites not stated)
T3 sequence: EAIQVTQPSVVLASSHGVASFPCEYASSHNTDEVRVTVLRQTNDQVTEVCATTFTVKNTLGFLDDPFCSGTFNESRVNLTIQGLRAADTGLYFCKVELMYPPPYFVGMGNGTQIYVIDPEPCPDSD

T4: recombinant human CTLA4 fused with human Fc and His tag (human, UniProt P16410 36-162, limits assumed)
T4 construct: Coated in the CD80 ELISA, biotinylated and in solution in the CD86 ELISA; also called biotinylated human CTLA4 fused with human FC and His tag
T4 sequence (looked up): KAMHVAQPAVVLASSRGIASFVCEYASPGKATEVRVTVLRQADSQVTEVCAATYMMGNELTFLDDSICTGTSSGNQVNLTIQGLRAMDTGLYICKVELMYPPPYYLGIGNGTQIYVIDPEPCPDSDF

T5: human Tim3 on HEK293F cells (human, UniProt Q8TDQ0 22-301)
T5 construct: whole, on cells
T5 sequence (looked up): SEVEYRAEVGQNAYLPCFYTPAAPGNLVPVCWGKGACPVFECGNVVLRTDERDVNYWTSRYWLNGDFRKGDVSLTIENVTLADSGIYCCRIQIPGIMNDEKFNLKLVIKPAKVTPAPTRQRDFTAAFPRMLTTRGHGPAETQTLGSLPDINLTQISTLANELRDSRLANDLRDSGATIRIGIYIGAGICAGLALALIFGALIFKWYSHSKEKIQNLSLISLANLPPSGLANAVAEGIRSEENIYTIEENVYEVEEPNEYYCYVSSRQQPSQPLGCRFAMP

B1: TY21591 (antibody, V domains shown)
VH: EVQLVESGGGLVQPGGSLRLSCAASGFSLSTGGVAVSWIRQAPGKGLEWIGEIYHSGSTYYSPSLKSRVTISRDNSKNTLYLQLNSLRAEDTAVYYCARRIATATYFDYWGQGTLVTVSS
VL: DIQLTQSPSSLSASVGDRVTITCRASQTVFSRYLAWYQQKPGKAPKLLIYDASNRATGIPSRFSGSGSGTDFTLTISSLQPEDFATYYCQQSYYWPPWTFGQGTKVEIK
notes: human IgG1 (hIgG1) from Fab hit B15756
B2: TY21691 (antibody, V domains shown)
VH: EVQLVESGGGLVQPGGSLRLSCAASGFTFSDYAIHWVRQAPGKGLEWIGIISPSGGSTKYAQKFQGRVTISRDNSKNTLYLQLNSLRAEDTAVYYCARLGYGYFDVWGQGTLVTVSS
VL: DIQLTQSPSSLSASVGDRVTITCRASQSVDFYGISFLHWYQQKPGKAPKLLIYDASSLESGVPSRFSGSGSGTDFTLTISSLQPEDFATYYCVQALQLPLTFGQGTKVEIK
notes: human IgG1 (hIgG1) from Fab hit B15736
B3: TY21687 (antibody, V domains shown)
VH: EVQLVESGGGLVQPGGSLRLSCAASGFTFSGYAIHWVRQAPGKGLEWIGIISPSGGGTKYAQKFQGRVTISRDNSKNTLYLQLNSLRAEDTAVYYCARHPFAYWGQGTLVTVSS
VL: DIQLTQSPSSLSASVGDRVTITCRASQSVDFYGISFLDWYQQKPGKAPKLLIYDASNRATGIPSRFSGSGSGTDFTLTISSLQPEDFATYYCQQYVSSPPEYTFGQGTKVEIK
notes: human IgG1 (hIgG1) from Fab hit B15700
B4: TY21585 (antibody, V domains shown)
VH: EVQLVESGGGLVQPGGSLRLSCAASGFTFSDYAIHWVRQAPGKGLEWIGIISPSSGSTNYAQKFQGRVTISRDNSKNTLYLQLNSLRAEDTAVYYCARDIHSGSSGYYYGFDVWGQGTLVTVSS
VL: B3 VL with Q27E, Y32F, D38A, Q94H, V96T, E101V
notes: human IgG1 (hIgG1) from Fab hit B15709

Columns and labels:
[1] = target: T6, human CD40 on HEK293F cells (human, UniProt P25942 21-277); experiment: flow cytometry, transfected HEK293F cells [Cont.]
T6 construct: whole, on cells
Protocol: (§1) Antibody selectivity was next examined. Human CTLA4, PD1, LAG3, Tim3, B7H3, CD95, TNFR1, OX40, CD40, PD-L1, BLTA, VISTA, PDL2, ICOS and B7H4 were transiently overexpressed on the surface of HEK293F cells. Transfected cells were washed in pre-chilled 1×PBSA buffer (1.76 mM KH2PO4, 10.14 mM Na2HPO4.12H2O, 2.68 mM KCl, 136.89 mM NaCl and 1% BSA), then incubated with 100 nM test antibodies for 1 hour on ice. Cells were washed once with staining buffer, and Alexa Fluor® 647 conjugated mouse anti-human FC antibodies were added and incubated for 30 minutes on ice, protected from light. Samples were washed once with staining buffer prior to analysis by flow cytometry.

[2] = target: T1, full-length human CTLA4 expressed on …; experiment: flow cytometry blocking: HEK293F cells with human CTLA4, 100 nM antibody, then 100 nM CD86-Fc-Bio (blocked ligand); PBSA panel: Mean 10678, 12.2%
Protocol: (§2) Antibodies were also tested for their ability to block binding of CTLA4 to its cognate ligands CD80 and CD86 by flow cytometry. The plasmid encoding full-length human CTLA4 was transiently expressed in HEK293F cells. Cells were washed with staining buffer (PBSA buffer including 1.76 mM KH₂PO₄, 10.14 mM Na₂HPO₄.12H₂O, 2.68 mM KCl, 136.89 mM NaCl and 1% BSA), and resuspended in staining buffer containing 100 nM test antibodies. […] Cells were washed once, and analyzed by CytoFlex flow cytometry.

[3] = target: T1, full-length human CTLA4 expressed on …; experiment: flow cytometry blocking: HEK293F cells with human CTLA4, 100 nM antibody, then 100 nM CD80-Fc-Bio (blocked ligand); PBSA panel: Mean 157692, 26.3%
Protocol: as §2

[4] = target: T2, human LAG3 on HEK293F cells; experiment: flow cytometry, transfected HEK293F cells
Protocol: as §1

[5] = target: T3, biotinylated rat CTLA4 protein fused …; experiment: BLI (ForteBio), biotinylated rat CTLA4-Fc on SA sensor, IgG 15 ug/mL
Text: The association and dissociation curves were fitted to a 1:1 Langmuir binding model using ForteBio Data Analysis 7.1 (Pall, USA) according to the manufacturer's guidelines.

[6] = target: T4, recombinant human CTLA4 fused with …; experiment: competition ELISA: plate-bound human CD86-Fc, biotinylated human CTLA4-Fc-His in solution
Protocol: Plates were blocked with PBS supplemented with 2% (w/v) skim milk at 37° C. for 1 hour. […] Plates were washed four times, and 100 μL HRP-neutravidin (1:1000) were added to each well and incubated at 37° C. for 1 hr. Plates were washed as previously described, and 50 μL TMB substrate solution was added and incubated at room temperature for 5 minutes before the reaction was stopped by 50 μL sulfate acid (2M).

[7] = target: T5, human Tim3 on HEK293F cells; experiment: flow cytometry, transfected HEK293F cells [Cont.]
Protocol: as §1

[8] = target: T1, full-length human CTLA4 expressed on …; experiment: flow cytometry, transfected HEK293F cells, 100 nM antibody [Cont.]
Protocol: as §1

T6 sequence (P25942 21-277): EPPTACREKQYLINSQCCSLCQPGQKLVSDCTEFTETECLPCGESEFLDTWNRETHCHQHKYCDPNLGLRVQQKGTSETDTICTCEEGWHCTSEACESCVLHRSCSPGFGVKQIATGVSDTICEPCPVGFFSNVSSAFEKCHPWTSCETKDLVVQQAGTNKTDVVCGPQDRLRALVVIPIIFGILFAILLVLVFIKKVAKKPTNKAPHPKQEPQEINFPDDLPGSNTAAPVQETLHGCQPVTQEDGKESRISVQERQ

Binder	binding result [1]	% of cells in upper right quadrant (CD86-positive) in the presence of the antibody [2]	Mean of the CD86 binding signal in the presence of the antibody [2]	% of cells in upper right quadrant (CD80-positive) in the presence of the antibody [3]	Mean of the CD80 binding signal in the presence of the antibody [3]	binding result [4]	Kd [5]	IC50 (read off the curve) [6]	binding result [7]	% of cells in upper right quadrant (Q2) [8]	Mean [8]
B1	no binding (tested: 100 nM)	0.61%	4960	24.9%	68500	–	–	–	–	–	–
B2	–	–	–	–	–	no binding (tested: 100 nM)	0.58 nM	~20 nM	–	–	–
B3	–	–	–	–	–	–	0.78 nM	~10 nM	no binding (tested: 100 nM)	75.7%	–
B4	no binding (tested: 100 nM)	3.43%	5140	22.5%	83700	no binding (tested: 100 nM)	–	–	no binding (tested: 100 nM)	36.3	6190
